Experimental data published in patent US20180339041A1 (Kyowa Kirin, published 2018).

T1: C-terminally FLAG-tagged human Gas6 recombinant protein (hGas6-F) (human, UniProt Q14393 31-678, gamma-carboxylated glutamic acid residues in the Gla domain (producer cells co-express rat VKOR and human GGCX); positions not given)
T1 construct: also called human Gas6-F; human Gas6 protein
T1 sequence: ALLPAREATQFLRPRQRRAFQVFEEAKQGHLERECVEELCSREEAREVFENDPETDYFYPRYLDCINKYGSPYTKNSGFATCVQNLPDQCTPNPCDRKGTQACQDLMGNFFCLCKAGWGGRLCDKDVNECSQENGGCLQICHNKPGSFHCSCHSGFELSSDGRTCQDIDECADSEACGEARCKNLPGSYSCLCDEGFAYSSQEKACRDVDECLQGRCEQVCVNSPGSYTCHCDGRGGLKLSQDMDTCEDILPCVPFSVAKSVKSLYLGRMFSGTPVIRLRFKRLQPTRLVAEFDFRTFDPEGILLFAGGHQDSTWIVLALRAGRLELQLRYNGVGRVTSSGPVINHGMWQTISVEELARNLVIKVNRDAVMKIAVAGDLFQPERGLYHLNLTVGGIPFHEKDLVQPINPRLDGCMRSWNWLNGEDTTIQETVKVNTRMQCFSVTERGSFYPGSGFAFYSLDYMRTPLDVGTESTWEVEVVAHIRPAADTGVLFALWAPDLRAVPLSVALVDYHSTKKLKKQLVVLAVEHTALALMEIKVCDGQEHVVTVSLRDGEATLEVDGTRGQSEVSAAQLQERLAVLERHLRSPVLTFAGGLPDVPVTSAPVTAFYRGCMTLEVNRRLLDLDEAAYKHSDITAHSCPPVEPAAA

B1: hzKM5320 LV2bHV8 antibody (antibody, V domains shown)
VH: QIQLVQSGPELKKPGASVKISCKASGYTFTNYGMNWVKQAPGQGLKWMGWINTETGEPTYSDDFKGRFVFSLDTSVTTAYLQISSLKAEDTATYFCAREDGYYGTLDYWGQGTTVTVSS
VL: DVVMTQSPDSLAVSAGERVTINCKASQSVSNDVAWYQQKPGQSPKLLIYYASNRYTGVPDRFSGSGSGTDFTFTISSLQAEDVAVYYCQQDYSSPWTFGQGTKLEIK
notes: Humanized; variant human IgG4 constant region (EU S228P, L235E, R409K), human kappa; also called A-14
B2: hzKM5320 LV5HV1 antibody (antibody, V domains shown)
VH: QVQLVQSGSELKKPGASVKVSCKASGYTFTNYGMNWVRQAPGQGLKWMGWINTETGEPTYSDDFKGRFVFSLDTSVSTAYLQISSLKAEDTAVYYCAREDGYYGTLDYWGQGTTVTVSS
VL: DIVMTQSPDSLAVSLGERVTINCKASQSVSNDVAWYQQKPGQSPKVLIYYASNRYTGVPDRFSGSGSGTDFTFTISSVQAEDVAVYFCQQDYSSPWTFGQGTKLEIK
notes: Humanized; variant human IgG4 constant region (EU S228P, L235E, R409K), human kappa; also called A-19
B3: hzKM5320 LV5HV3b antibody (antibody, V domains shown)
VH: QIQLVQSGSELKKPGASVKISCKASGYTFTNYGMNWVRQAPGQGLEWMGWINTETGEPTYSDDFKGRFVFSLDTSVSTAYLQISSLKAEDTAVYFCAREDGYYGTLDYWGQGTTVTVSS
VL: DIVMTQSPDSLAVSLGERVTINCKASQSVSNDVAWYQQKPGQSPKVLIYYASNRYTGVPDRFSGSGSGTDFTFTISSVQAEDVAVYFCQQDYSSPWTFGQGTKLEIK
notes: Humanized; variant human IgG4 constant region (EU S228P, L235E, R409K), human kappa; also called A-22
B4: hzKM5320 LV3HV0 antibody (antibody, V domains shown)
VH: QVQLVQSGSELKKPGASVKVSCKASGYTFTNYGMNWVRQAPGQGLEWMGWINTETGEPTYSDDFKGRFVFSLDTSVSTAYLQISSLKAEDTAVYYCAREDGYYGTLDYWGQGTTVTVSS
VL: DVVMTQSPDSLAVSLGERVTINCKASQSVSNDVAWYQQKPGQSPKVLIYYASNRYTGVPDRFSGSGSGTDFTFTISSLQAEDVAVYFCQQDYSSPWTFGQGTKLEIK
notes: Humanized; variant human IgG4 constant region (EU S228P, L235E, R409K), human kappa; also called A-07
B5: hzKM5320 LV5HV3c antibody (antibody, V domains shown)
VH: QVQLVQSGPELKKPGASVKVSCKASGYTFTNYGMNWVKQAPGQGLKWMGWINTETGEPTYSDDFKGRFVFSLDTSVSTAYLQISSLKAEDTAVYYCAREDGYYGTLDYWGQGTTVTVSS
VL: DIVMTQSPDSLAVSLGERVTINCKASQSVSNDVAWYQQKPGQSPKVLIYYASNRYTGVPDRFSGSGSGTDFTFTISSVQAEDVAVYFCQQDYSSPWTFGQGTKLEIK
notes: Humanized; variant human IgG4 constant region (EU S228P, L235E, R409K), human kappa; also called A-23
B6: hzKM5320 LV3HV8 antibody (antibody, V domains shown)
VH: QIQLVQSGPELKKPGASVKISCKASGYTFTNYGMNWVKQAPGQGLKWMGWINTETGEPTYSDDFKGRFVFSLDTSVTTAYLQISSLKAEDTATYFCAREDGYYGTLDYWGQGTTVTVSS
VL: DVVMTQSPDSLAVSLGERVTINCKASQSVSNDVAWYQQKPGQSPKVLIYYASNRYTGVPDRFSGSGSGTDFTFTISSLQAEDVAVYFCQQDYSSPWTFGQGTKLEIK
notes: Humanized; variant human IgG4 constant region (EU S228P, L235E, R409K), human kappa; also called A-15
B7: hzKM5320 LV5HV0 antibody (antibody, V domains shown)
VH: QVQLVQSGSELKKPGASVKVSCKASGYTFTNYGMNWVRQAPGQGLEWMGWINTETGEPTYSDDFKGRFVFSLDTSVSTAYLQISSLKAEDTAVYYCAREDGYYGTLDYWGQGTTVTVSS
VL: DIVMTQSPDSLAVSLGERVTINCKASQSVSNDVAWYQQKPGQSPKVLIYYASNRYTGVPDRFSGSGSGTDFTFTISSVQAEDVAVYFCQQDYSSPWTFGQGTKLEIK
notes: Humanized; variant human IgG4 constant region (EU S228P, L235E, R409K), human kappa; also called A-08
B8: hzKM5320 LV5HV4 antibody (antibody, V domains shown)
VH: QVQLVQSGPELKKPGASVKVSCKASGYTFTNYGMNWVRQAPGQGLKWMGWINTETGEPTYSDDFKGRFVFSLDTSVSTAYLQISSLKAEDTATYFCAREDGYYGTLDYWGQGTTVTVSS
VL: DIVMTQSPDSLAVSLGERVTINCKASQSVSNDVAWYQQKPGQSPKVLIYYASNRYTGVPDRFSGSGSGTDFTFTISSVQAEDVAVYFCQQDYSSPWTFGQGTKLEIK
notes: Humanized; variant human IgG4 constant region (EU S228P, L235E, R409K), human kappa; also called A-24

These binders were tested against T1, C-terminally FLAG-tagged human Gas6 … (assay: SPR Biacore T100, captured antibody, Gas6 analyte, first test).
Procedure: An anti-human IgG antibody was immobilized on a CM5 sensor chip (manufactured by GE Healthcare Japan Corp.) using Human Antibody Capture Kit (manufactured by GE Healthcare Japan Corp.) according to the attached manual. Each test antibody adjusted to 1 μg/mL was added for 10 seconds at a flow rate of 10 μL/min to flow cells. […] The measurement was performed by the […] method. The obtained sensorgram was analyzed using Bia Evaluation Software (manufactured by GE Healthcare Japan Corp.), and the kinetic constant of each antibody was calculated.
In the case of B1, the Kd is reported as less than 9.77 nM, the koff is reported as 0.000791 s⁻¹ and the kon is reported as greater than 81000 M⁻¹ s⁻¹. Binder B2 has a Kd of less than 2.48 nM, a koff of 0.000184 s⁻¹ and a kon greater than 74100 M⁻¹ s⁻¹. For B3, the Kd was less than 2.01 nM, the koff was 0.000153 s⁻¹ and the kon was greater than 76300 M⁻¹ s⁻¹. In the case of B4, the Kd is reported as less than 2.91 nM, the koff is reported as 0.000209 s⁻¹ and the kon is reported as greater than 71900 M⁻¹ s⁻¹. B5 was tested, and the Kd was less than 1.79 nM, the koff was 0.00014 s⁻¹ and the kon was greater than 77900 M⁻¹ s⁻¹. For B6, the Kd was less than 2.3 nM, the koff was 0.000174 s⁻¹ and the kon was greater than 75600 M⁻¹ s⁻¹. B7 gave a Kd of less than 2.85 nM, a koff of 0.00019 s⁻¹ and a kon greater than 66700 M⁻¹ s⁻¹. Work on B8 yielded a Kd of less than 2.19 nM, a koff of 0.000173 s⁻¹ and a kon greater than 79200 M⁻¹ s⁻¹.
